This is an account of results in patent US20130180016A1.

Test [1] has as its target putative receptor(s) on brush border membrane vesicles (BBMV) prepared from midguts of third instars of the western corn rootworm (Diabrotica virgifera virgifera LeConte) (Diabrotica virgifera virgifera). Nature of the test: saturation radioligand binding to western corn rootworm BBMV (0.1 mg/ml), GraphPad Prism fit.
The target is the same in test [2]. The test can be described thus: homologous competition, 5 nM 125I-Cry3Ba1 on western corn rootworm BBMV (0.1 mg/ml), unlabelled Cry3Ba1 (0-2,500 nM) as competitor.
For test [3] the target is unchanged.

B1: Cry3Ba1 trypsin core (protein)
chain: SQDRIRELFSQAESHFRNSMPSFAVSKFEVLFLPTYAQAANTHLLLLKDAQVFGEEWGYSSEDIAEFYQRQLKLTQQYTDHCVNWYNVGLNSLRGSTYDAWVKFNRFRREMTLTVLDLIVLFPFYDVRLYSKGVKTELTRDIFTDPIFTLNALQEYGPTFSSIENSIRKPHLFDYLRGIEFHTRLRPGYSGKDSFNYWSGNYVETRPSIGSNDTITSPFYGDKSIEPIQKLSFDGQKVYRTIANTDIAAFPDGKIYFGVTKVDFSQYDDQKNETSTQTYDSKRYNGYLGAQDSIDQLPPETTDEPLEKAYSHQLNYAECFLMQDRRGTIPFFTWTHRSVDFFNTIDAEKITQLPVVKAYALSSGASIIEGPGFTGGNLLFLKESSNSIAKFKVTLNSAALLQRYRVRIRYASTTNLRLFVQNSNNDFLVIYINKTMNIDGDLTYQTFDFATSNSNMGFSGDTNDFIIGAESFVSNEKIYIDKIEFIPVQ
modifications: 125I-iodinated (Pierce Iodination Beads, Na125I) where used as the labelled ligand; unlabelled where used as competitor
In test [1], B1 registered a Kd of 7.35 nM and a binding site concentration Bmax of 0.55 pmol/mg BBMV. The percent of the total binding displaced in test [2] was above 20%.

B2: Cry35Ab1 chymotrypsin core (chymotrypsin-truncated Cry35Ab1 core protein) (protein)
chain: MLDTNKVYEISNHANGLYAATYLSLDDSGVSLMNKNDDDIDDYNLKWFLFPIDDDQYIITSYAANNCKVWNVNNDKINVSTYSSTNSIQKWQIKANGSSYVIQSDNGKVLTAGTGQALGLIRLTDESSNNPNQQWNLTSVQTIQLPQKPIIDTKLKDYPKYSPTGNIDNGTSPQLMGWTLVPCIMVNDPNIDKNTQIKTTPYYILKKYQYWQRAVGSNVALRPHEKKSYTYEWGTEIDQKTTIINTLGFQINIDSGMKFDIPEVGGGTDEIKTQLNEELKIEYSHETKIMEKYQEQSEIDNPTDQSMNSIGFLTITSLELYRYNGSEIRIMQIQTSDNDTYNVTSYPNHQQALL
modifications: 125I-iodinated (Pierce Iodination Beads, Na125I) where used as the labelled ligand; unlabelled where used as competitor
For the molecule B2, in test [1], the Kd worked out at 11.7 nM and the binding site concentration Bmax was found to be 0.78 pmol/mg BBMV.

B3: mixture of Cry35Ab1+Cry34Ab1 (binary toxin) (protein)
chain 1: B2 chain
chain 2: MSAREVHIDVNNKTGHTLQLEDKTKLDGGRWRTSPTNVANDQIKTFVAESNGFMTGTEGTIYYSINGEAEISLYFDNPFAGSNKYDGHSNKSQYEIITQGGSGNQSHVTYTIQTTSSRYGHKS
modifications: 125I-iodinated where the mixture holds the labelled ligand
In the case of B3, the specific binding as percent of the total binding in test [3] was 90%.

For orientation: Kd means a measure of binding affinity in units of concentration. A lower Kd goes with a tighter complex.
